This is an account of results in patent US20170202936A1, “Identification, Optimization And Use Of Cryptic HLA-B7 Epitopes For Immunotherapy” (VAXON BIOTECH, priority 2006, published 2017).

Where only a bound is given, the exact number is not on record here.

For the test, the target named is HLA-B*0702 (human). Description: T2-B7 cells, HLA-B*0702 surface expression (ME-1 mAb); ratio to reference peptide CMV265-274 (SEQ ID NO: 9). The settings on record: remark: other sources report otherwise.

Turning to DPRRLVQLL [TERT444], the RA (relative affinity) is greater than 10.
